Laboratory results reported in publication PMC10042815.

Target: thrombin (Sigma, Germany)

Substance | antithrombin activity by thrombin titration (bovine fibrinogen, fibrin clot within 1 min as endpoint, 37 °C, 50 mM Tris-HCl pH 7.4) [ATU/mL]
commercially available hirudin (MedChem Express) (natural protein) | 12000
recombinant hirudin from Hirudo nipponia (candidate hirudin gene c16237_g1) (natural protein) | 14000
